From patent publication US20100254965A1, “Adenosine Signaling in Diagnosis, Treatment, and Prevention of Priapism and Erectile Dysfunction” (BOARD OF REGENTS ,THE UNIVERSITY OF TEXAS SYSTEM, priority 2006, published 2010)
Entries after “also recorded” stand apart in the source; their conditions may differ.

Experiments:
ADA-deficient mice [1] = settings: cited from earlier work
[2] = system: corpus cavernosal strips (CCS); assay: EFS-induced relaxation of phenylephrine-precontracted corpus cavernosal strips (CCS) of ADA+ and ADA-/- mice; assay type: cell-based, mouse
Text: Prolonged penile erection in ADA-deficient mice is associated with increased corpus cavernosal relaxation in response to nerve stimulation. To determine if the potent and prolonged penile erection seen in ADA-deficient mice is associated with increased corpus cavernosal relaxation, we evaluated comparatively the relaxation of phenylephrine-precontracted isolated corpus cavernosal strips of ADA+ and ADA−/− mice in response to nerve stimulation^73,74. The corpus cavernosum is under sympathetic influence to maintain a contracted state resulting in a flaccid penis^3. To emulate this situation, contraction was induced by treatment with the α-adrenergic receptor agonist, phenylephrine (10 μM). The maximum phenylephrine-induced contraction was reached within 10-20 s after application to cavernosal strips from ADA+ and ADA−/− mice. Electrical field stimulation (EFS) is commonly used to stimulate the nerves that innervate the smooth muscle cells of the corpus cavernosum to mediate relaxation, corresponding to normal physiological penile erection^19,73,74,92,93. In our studies, EFS induced relaxation of corpus cavernosal strips from both ADA+ and ADA−/− mice in a voltage and frequency-dependent manner (FIGS. 14b and c). For ADA+ mice, relaxation increased incrementally over a standard voltage range with a maximal response at 20 V and 30 Hz.
Elevated adenosine in ADA-deficient mice contributes to increased corpus cavernosal strip relaxation. […]
Function experiments. […] The contractility of each isolated corpus cavernosum smooth muscle cells (CCSM) strip was measured using an isometric force transducer (AD Instrument Inc., Georgia, Vt., USA). […] The contractile responses of the strips were analysed by adding 10 μM phenylephrine to the bath, and force changes were recorded in response to drug application and to electrical field stimulation. […] The changes of cAMP and cGMP contents in CC strips were subsequently measured by commercial enzyme immunoassay kit (Amersham Pharmacia) (see below).

[3] = system: corpus cavernosal strips (CCS); assay: Adenosine-induced relaxation of corpus cavernosal strips (CCS); assay type: cell-based, mouse; settings: CCS of wild type mice, 1-10 μM, adenosine 100 μM
Experimental: FIG. 16. […] CCS of wild type mice were treated with different concentrations of adenosine with or without DCF (5 μM), a specific inhibitor of adenosine deaminase. Then the extent (mN) of force was monitored. (b) CCS of wild type mice were treated with 100 μM adenosine in the presence of different concentrations of DCF (0-100 uM). Then the extent of force was measured. Data are expressed as mean±SE. *p<0.05, adenosine treated versus the control, **p<0.05, DCF treated versus the adenosine treated.
FIG. 17. A2BR signaling is required for adenosine-mediated corpus cavernosal strips (CCS) relaxation. (a) CCS of wild type mice were treated with different concentrations of theophiline (1-10 μM) in the presence or absence of adenosine (100 μM). The force changes were measured by force transducer. Data are expressed as mean±SE. *p<0.05, adenosine treated versus the control, **p<0.05, theophiline treated versus the untreated, N=5. (b) CCS from wild type, A2AR, A1R A2BR and A3R-deficient mice were treated with different concentrations of adenosine. The relaxation was measured by force transducer. Data are expressed as mean±SE. *p<0.05, adenosine treated versus the wild type. (c) CCS were isolated from wild type and A2BR-deficient mice and treated with different concentrations of adenosine in the presence or absence of L-NAME (100 μM) or MRS1706 (10 μM). 10 min after treatment, cellular extracts were collected and cAMP levels were measured by using a commercial enzyme immunoassay kit (Amersham Pharmacia). Data are expressed as mean±SE. *p<0.05, adenosine treated versus the control without treatment; **p<0.05, adenosine treated with MRS1706 versus the adenosine treated alone; ***p<0.05, CCS of A2BR-deficient mice treated with adenosine versus the CCS of wild type mice treated with adenosine. N=6-7. (d) CCS of A2BR and ADA double deficient mice lost the hypersensitivity to nerve stimulation compared to ADA deficient mice.
(§1) Function experiments. The tunica albuginea was cut longitudinally, starting at the most proximal point of the corpus cavernosum (CC) toward the penile shaft, and the erectile tissue was partially dissected free from the tunica. One strip of tissue (0.3×0.3×3 mm) was obtained from each corpus cavernosum. The contractility of each isolated corpus cavernosum smooth muscle cells (CCSM) strip was measured using an isometric force transducer (AD Instrument Inc., Georgia, Vt., USA). The strip was mounted in a thermostatically controlled tissue bath containing aerated PSS (mM: 119 NaCl, 4.7 KCl, 24 NaHCO 3, 1.2 KH2PO4, 2.5 CaCl2, 1.2 MgSO4, 0.023 EDTA, and 11 glucose; 5 ml volume, 95% O2 and 5% CO2, 37° C.) and stretched to a resting tension of 0.1 mN. The contractile responses of the strips were analysed by adding 10 μM phenylephrine to the bath, and force changes were recorded in response to drug application and to electrical field stimulation. The particular electrical field stimulation parameters of 0-30V, 30 HZ with a pulse width of approximately 0.5 ms, are commonly used in the mice. […] The changes of cAMP and cGMP contents in CC strips were subsequently measured by commercial enzyme immunoassay kit (Amersham Pharmacia) (see below).

[4] = system: multiple animal models, including humans; settings: in vivo; cited from earlier work
[5] = system: corpus cavernosal strips (CCS); assay: EFS-induced relaxation of CCS of SCD transgenic mice and controls; assay type: cell-based, mouse
Experimental: FIG. 21. Priapic activity seen in SCD transgenic mice is dependent on elevated adenosine in penis via A2BR signaling. (a) Adenosine levels in the penis increased in SCD transgenic mice. Perchloric acid extracts of penile tissues from SCD transgenic mice and control mice were analyzed by HPLC to determine the levels of adenosine. The data are expressed as mean±SE. *p<0.005, (control n=5 and SCD transgenic mice n=6), SCD transgenic mice versus the controls. (b) Increased corpus cavernosum strips (CCS) relaxation by electrical field stimulation (EFS) in SCD transgenic mice. Relaxation effect of EFS with different voltages (0-30V) at 30 Hz and 0.5 ms pulse width, alternating polarity between pulses, in 10 μM phenylephrine-precontracted CCS from the controls (n=5) and SCD transgenic mice (n=5). (c-e) Prolonged penile erection seen in SCD transgenic mice is due to high levels of adenosine in the penis via A2BR signaling. Average EFS-induced relaxation from the PE-precontracted CC strips of the controls and SCD transgenic mice treated without or with PEG-ADA, MRS1706 or ZM241389. EFS-induced force change (c), duration of relaxation by EFS (d) and area under basal line (e) were representative of the CCS relaxation. (n=5 for the controls and n=5 for SCD transgenic mice with or without PEG-ADA, MRS1706 or ZM241389 treatment, respectively). Data are given as means±SE. *p<0.05, SCD transgenic mice versus the controls, **p<0.05, CCS of […] with PEG-ADA, MRS1706 or ZM241389 treatment versus CCS of SCD transgenic mice without treatment; ***p<0.05, CCS of the control mice with MRS1706 and/or L-NAME treatment versus CCS of the control mice without treatment.
Sickle cell disease (SCD) transgenic mice, expressing exclusively human sickle hemoglobin, were also used. These mice were age-matched, adult male homozygotes [SS^−/−, consisting of a transgene and two targeted gene deletions: (Tg (Hu-miniLCR alpha 1G gamma A gamma delta beta s) Hba0//Hba0 Hbb0//Hbb00) and heterozygotes (SS^−/+, SS^−/− genotype except Hbb0//Hbb+), developed on a mixed-strain background (mouse strains FVB/N, 129, DBA/2, C57BL/6, Black Swiss)^94,95.
as §1

ADA-deficient mice [6] = assay: Spontaneous prolonged penile erection (priapic activity) in ADA-deficient mice, PEG-ADA enzyme therapy; assay type: in vivo, mouse; settings: intraperitoneal injection of PEG-ADA
Experimental: The ADA-deficient mice were injected with PEG-ADA weekly. During the course of maintaining our production colony of ADA-deficient mice, we noticed that ADA-deficient male breeders (kept alive by enzyme therapy) frequently presented with prolonged penile erections lasting up to 72 hours (FIG. 1a). The penile erections were typically noticed at the time of the scheduled weekly PEG-ADA injection. We know from earlier studies that the lowest levels of circulating adenosine are achieved during the first day following the PEG-ADA injection^21,28. Adenosine levels rise continually during the subsequent days preceding the next PEG-ADA injection. Thus, adenosine levels are highest just prior to the scheduled weekly injection of PEG-ADA when the priapism was observed^21,28. Priapic erections were never observed in wild type male mice (FIG. 14a).
Prolonged penile erection in ADA-deficient mice depends on pronounced accumulation of adenosine in the penis. We hypothesized that the increased penile erection and corpus cavernosal smooth muscle relaxation in response to nerve stimulation in ADA-deficient mice were due to elevated concentrations of adenosine. To test this hypothesis, adenosine levels were quantified in penile tissue from ADA^+ and ADA^−/− mice^21,23,28. […]

CCCn1c(=O)c2[nH]c(-c3cnn(Cc4cccc(C(F)(F)F)c4)c3)nc2n(CC)c1=O [CVT-6883]
adenosine-mediated pulmonary fibrosis and enlargement of alveolar airspaces (ADA-deficient mice [1]): significantly reduces adenosine-mediated pulmonary fibrosis and enlargement of alveolar airspaces

CNC[C@H](O)c1cccc(O)c1 [phenylephrine]
time to maximum phenylephrine-induced contraction ([2]; 10 μM, cavernosal strips from ADA+ and ADA-/- mice): 10 to 20 s

Cn1c(=O)c2[nH]cnc2n(C)c1=O [theophyline, theophylline]
inhibition of adenosine-mediated corpus cavernosal strip relaxation [3]: significantly inhibited adenosine-mediated corpus cavernosal strip relaxation in a dosage dependent manner
adenosine-induced penile tumescence [4]: inhibited adenosine-induced penile tumescence

B1: PEG-ADA: purified bovine ADA covalently modified with activated polyethylene glycol; modified form of ADA used for enzyme therapy (protein, UniProt P56658 2-363, looked up)
Adenosine deaminase: AQTPAFNKPKVELHVHLDGAIKPETILYYGRKRGIALPADTPEELQNIIGMDKPLSLPEFLAKFDYYMPAIAGCREAVKRIAYEFVEMKAKDGVVYVEVRYSPHLLANSKVEPIPWNQAEGDLTPDEVVSLVNQGLQEGERDFGVKVRSILCCMRHQPSWSSEVVELCKKYREQTVVAIDLAGDETIEGSSLFPGHVKAYAEAVKSGVHRTVHAGEVGSANVVKEAVDTLKTERLGHGYHTLEDATLYNRLRQENMHFEVCPWSSYLTGAWKPDTEHPVVRFKNDQVNYSLNTDDPLIFKSTLDTDYQMTKNEMGFTEEEFKRLNINAAKSSFLPEDEKKELLDLLYKAYGMPSPASAEQCL
modifications: PEG
notes: modified form of ADA used for enzyme therapy
force, duration and area under baseline of EFS-induced relaxation ([5]; CCS of SCD transgenic mice versus untreated CCS): significantly reduced the force, duration and area under baseline
force, duration and area under baseline of EFS-induced relaxation ([5]; CCS of the controls): decreased the force, duration and area under baseline
pulmonary inflammation and fibrosis (ADA-deficient mice [1]; lowering adenosine by PEG-ADA therapy): can prevent and even reverse aspects of pulmonary inflammation and fibrosis
prolonged penile erection / priapic activity (ADA-deficient mice [6]): quickly corrected; also recorded: quickly reverses the priapic activity; also recorded: relieved the prolonged penile erection
force, duration and area under baseline of EFS-induced relaxation ([2]; CCS from ADA-/- mice, EFS 5V and 30 Hz for 60 s, versus untreated CCS): significantly reduced the force, duration and area under baseline
EFS-induced CCS relaxation ([2]; CCS of control (ADA+) mice, EFS 5V and 30 Hz): decreased the EFS-induced CCS relaxation
